Experiments:
Experiment in all cases: cell-based or functional assay
[1] = target: T1, factor VIIIa A1/A3C1C2 dimer, D1795A (human, UniProt P00451 20-391; P00451 1709-2351)
T1 sequence 1: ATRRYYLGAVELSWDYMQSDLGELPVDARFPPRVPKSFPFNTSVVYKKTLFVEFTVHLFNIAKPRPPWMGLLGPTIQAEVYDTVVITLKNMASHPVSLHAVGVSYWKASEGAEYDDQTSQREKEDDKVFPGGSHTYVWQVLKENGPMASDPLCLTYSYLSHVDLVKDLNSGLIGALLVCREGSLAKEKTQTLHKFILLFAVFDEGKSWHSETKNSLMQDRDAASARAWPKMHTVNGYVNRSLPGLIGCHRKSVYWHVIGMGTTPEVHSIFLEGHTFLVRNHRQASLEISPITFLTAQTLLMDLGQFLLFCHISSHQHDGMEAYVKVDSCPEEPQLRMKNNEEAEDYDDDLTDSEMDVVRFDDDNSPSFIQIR
T1 sequence 2: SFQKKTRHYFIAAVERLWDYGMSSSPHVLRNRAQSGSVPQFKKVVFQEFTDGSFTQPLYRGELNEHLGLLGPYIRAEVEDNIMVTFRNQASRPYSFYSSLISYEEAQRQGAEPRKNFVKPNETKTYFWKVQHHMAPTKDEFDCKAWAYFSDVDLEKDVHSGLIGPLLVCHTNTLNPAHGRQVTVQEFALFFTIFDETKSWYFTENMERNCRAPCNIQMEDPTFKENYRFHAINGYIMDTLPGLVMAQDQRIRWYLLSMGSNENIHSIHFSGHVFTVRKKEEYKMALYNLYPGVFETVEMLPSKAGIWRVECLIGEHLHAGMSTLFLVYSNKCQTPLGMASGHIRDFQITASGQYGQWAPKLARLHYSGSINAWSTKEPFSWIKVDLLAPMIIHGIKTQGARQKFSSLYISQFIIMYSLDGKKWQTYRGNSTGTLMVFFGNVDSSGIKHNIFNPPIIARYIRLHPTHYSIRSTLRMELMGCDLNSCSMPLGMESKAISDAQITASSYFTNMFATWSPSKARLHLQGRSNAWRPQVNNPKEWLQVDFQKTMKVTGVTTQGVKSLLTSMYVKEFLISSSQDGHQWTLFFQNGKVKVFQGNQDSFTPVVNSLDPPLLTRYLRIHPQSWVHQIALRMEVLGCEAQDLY

[2] = target: T2, factor VIIIa A1/A3C1C2 dimer, R1966A (human, UniProt P00451 20-391; P00451 1709-2351)
T2 sequence 1: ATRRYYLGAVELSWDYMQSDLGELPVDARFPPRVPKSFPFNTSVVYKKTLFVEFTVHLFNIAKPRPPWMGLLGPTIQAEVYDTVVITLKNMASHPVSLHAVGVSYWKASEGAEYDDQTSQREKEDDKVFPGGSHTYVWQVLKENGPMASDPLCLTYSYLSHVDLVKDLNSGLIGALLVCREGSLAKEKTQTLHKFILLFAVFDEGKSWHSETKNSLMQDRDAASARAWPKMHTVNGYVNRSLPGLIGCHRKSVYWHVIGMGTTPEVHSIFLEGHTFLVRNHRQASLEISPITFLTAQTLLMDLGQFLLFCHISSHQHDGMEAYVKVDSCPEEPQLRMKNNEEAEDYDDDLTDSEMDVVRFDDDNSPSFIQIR
T2 sequence 2: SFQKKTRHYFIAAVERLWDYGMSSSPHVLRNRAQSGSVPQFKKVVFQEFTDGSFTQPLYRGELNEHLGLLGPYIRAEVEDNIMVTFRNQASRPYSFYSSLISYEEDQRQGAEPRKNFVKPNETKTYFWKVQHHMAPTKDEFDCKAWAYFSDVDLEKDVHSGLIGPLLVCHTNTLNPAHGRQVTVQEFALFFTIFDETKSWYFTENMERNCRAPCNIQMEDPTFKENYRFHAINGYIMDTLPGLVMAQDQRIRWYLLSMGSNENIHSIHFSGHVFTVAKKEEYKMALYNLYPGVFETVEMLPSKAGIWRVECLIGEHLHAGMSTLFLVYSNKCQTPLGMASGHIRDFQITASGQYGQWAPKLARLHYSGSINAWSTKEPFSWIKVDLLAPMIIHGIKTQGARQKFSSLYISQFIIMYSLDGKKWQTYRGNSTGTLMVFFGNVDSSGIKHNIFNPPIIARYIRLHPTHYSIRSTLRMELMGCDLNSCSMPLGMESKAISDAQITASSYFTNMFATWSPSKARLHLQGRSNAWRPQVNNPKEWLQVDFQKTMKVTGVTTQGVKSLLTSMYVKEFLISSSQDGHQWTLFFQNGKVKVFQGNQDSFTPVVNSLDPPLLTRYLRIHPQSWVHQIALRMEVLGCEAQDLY

[3] = target: T3, factor VIIIa A1/A3C1C2 dimer, N1950A (human, UniProt P00451 20-391; P00451 1709-2351)
T3 sequence 1: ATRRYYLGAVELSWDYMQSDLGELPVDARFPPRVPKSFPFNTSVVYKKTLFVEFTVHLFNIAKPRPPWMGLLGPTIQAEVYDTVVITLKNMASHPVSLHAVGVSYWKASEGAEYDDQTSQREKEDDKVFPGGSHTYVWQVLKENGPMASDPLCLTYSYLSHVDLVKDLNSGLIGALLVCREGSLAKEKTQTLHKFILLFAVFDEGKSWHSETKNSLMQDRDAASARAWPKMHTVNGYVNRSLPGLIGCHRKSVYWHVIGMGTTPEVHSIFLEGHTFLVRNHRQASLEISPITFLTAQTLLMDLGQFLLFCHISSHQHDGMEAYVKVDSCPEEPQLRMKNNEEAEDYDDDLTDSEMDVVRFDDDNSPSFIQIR
T3 sequence 2: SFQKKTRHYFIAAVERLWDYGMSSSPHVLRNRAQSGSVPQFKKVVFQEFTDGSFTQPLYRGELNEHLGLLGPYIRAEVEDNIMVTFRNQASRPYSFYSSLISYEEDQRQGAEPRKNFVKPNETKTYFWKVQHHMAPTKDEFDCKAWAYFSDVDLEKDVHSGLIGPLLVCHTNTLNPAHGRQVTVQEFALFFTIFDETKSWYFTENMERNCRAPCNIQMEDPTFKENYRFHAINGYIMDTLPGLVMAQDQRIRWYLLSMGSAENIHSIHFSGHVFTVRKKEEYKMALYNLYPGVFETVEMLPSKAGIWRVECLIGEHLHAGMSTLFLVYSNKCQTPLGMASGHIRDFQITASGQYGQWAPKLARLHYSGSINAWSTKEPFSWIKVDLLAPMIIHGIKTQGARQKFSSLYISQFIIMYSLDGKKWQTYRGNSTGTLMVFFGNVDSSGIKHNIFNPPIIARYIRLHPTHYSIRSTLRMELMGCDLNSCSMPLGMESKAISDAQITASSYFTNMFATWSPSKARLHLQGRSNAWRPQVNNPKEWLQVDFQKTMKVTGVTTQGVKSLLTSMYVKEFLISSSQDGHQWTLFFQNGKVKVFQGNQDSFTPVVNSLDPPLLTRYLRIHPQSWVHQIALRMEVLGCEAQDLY

B1: factor VIIIa A2 subunit, wild type (other)
chain: SVAKKHPKTWVHYIAAEEEDWDYAPLVLAPDDRSYKSQYLNNGPQRIGRKYKKVRFMAYTDETFKTREAIQHESGILGPLLYGEVGDTLLIIFKNQASRPYNIYPHGITDVRPLYSRRLPKGVKHLKDFPILPGEIFKYKWTVTVEDGPTKSDPRCLTRYYSSFVNMERDLASGLIGPLLICYKESVDQRGNQIMSDKRNVILFSVFDENRSWYLTENIQRFLPNPAGVQLEDPEFQASNIMHSINGYVFDSLQLSVCLHEVAYWYILSIGAQTDFLSVFFSGYTFKHKMVYEDTLTLFPFSGETVFMSMENPGLWILGCHNSDFRNRGMTALLKVSSCDKNTGDYYEDSYEDISAYLLSKNNAIEPR
- Factor VIIIa decay rate relative to wild type, FIXa (+) [1]: 2.11 relative to wild type
- Factor VIIIa decay rate, FIXa (+) [1]: 0.0238 min⁻¹
- Factor VIIIa decay rate relative to wild type, FIXa (+) [2]: 1.44 relative to wild type
- Factor VIIIa decay rate, FIXa (+) [2]: 0.0163 min⁻¹
- Factor VIIIa decay rate relative to wild type, FIXa (+) [3]: 1.73 relative to wild type
- Factor VIIIa decay rate, FIXa (+) [3]: 0.0195 min⁻¹
